Reference: patent publication US20030159166A1 (ORTHO MCNEIL PHARMACEUTICAL, published 2003)

Target: T1, recombinant soluble HLA-DM (human, UniProt P28067 27-233; P28068 19-218)
T1 construct: extracellular domain; Expressed in Drosophila Schneider-2 cells, purified on Ni-NTA agarose and by gel filtration
Experiment: in vitro complex formation, isolation on Ni-NTA agarose by the His tag of DM

B1: DO-Fc fusion protein (extracellular domains of DOA and DOB fused to the Fc domain of human IgG1) (Fc fusion)
MHC II alpha: TKADHMGSYGPAFYQSYGASGQFTHEFDEEQLFSVDLKKSEAVWRLPEFGDFARFDPQGGLAGIAAIKAHLDILVERSNRSRAINVPPRVTVLPKSRVELGQPNILICIVDNIFPPVINITWLRNGQTVTEGVAQTSFYSQPDHLFRKFHYLPFVPSAEDVYDCQVEHWGLDAPLLRHWELQVPIPPPDAME
MHC II beta: TDSPEDFVIQAKADCYFTNGTEKVQFVVRFIFNLEEYVRFDSDVGMFVALTKLGQPDAEQWNSRLDLLERSRQAVDGVCRHNYRLGAPFTVGRKVQPEVTVYPERTPLLHQHNLLHCSVTGFYPGDIKIKWFLNGQEERAGVMSTGPIRNGDWTFQTVVMLEMTPELGHVYTCLVDHSSLLSPVSVEWRAQSEYSWRK
notes: extracellular domain; Expressed in Drosophila Schneider-2 cells, purified on protein A sepharose; also called HLA-DO; not shown: human IgG1 Fc domain
binding result: binds
